Experimental data taken from publication PMC12678272.

Assays:
[1] = target: GST-RILP-L1 (RILP-Like 1, mouse) (mouse) (UniProt Q9JJC6); assay: pull-down; 20 ug GST fusion protein immobilised on glutathione agarose beads, incubated 18 h at 4 C with 500 ug RAW264.7 macrophage lysate (untreated or treated with GSK2578215A); 50 mM HEPES pH 7.4, 150 mM NaCl, 1 mM MgCl2, 1% Triton X-100, phosphatase inhibitors; immunoblot, quantified as percent of total input
[2] = target: GST-RILP-L2 (RILP-Like 2, mouse) (mouse) (UniProt Q99LE1); assay: as above
Sequence of UniProt Q99LE1 (Q99LE1 whole entry, the tested form may be a part): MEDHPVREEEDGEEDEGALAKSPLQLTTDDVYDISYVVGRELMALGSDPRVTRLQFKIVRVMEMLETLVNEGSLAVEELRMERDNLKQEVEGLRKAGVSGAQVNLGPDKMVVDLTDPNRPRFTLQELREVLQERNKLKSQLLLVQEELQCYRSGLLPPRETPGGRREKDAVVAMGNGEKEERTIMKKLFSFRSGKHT

[3] = target: GST-RILP-L1 (RILP-Like 1, mouse) (mouse) (UniProt Q9JJC6); assay: pull-down; 20 ug GST fusion protein immobilised on glutathione agarose beads, incubated 18 h at 4 C with 500 ug RBL cell lysate (untreated, Ion/TPA-activated, or Ion/TPA with LY333531); 50 mM HEPES pH 7.4, 150 mM NaCl, 1 mM MgCl2, 1% Triton X-100, phosphatase inhibitors; immunoblot, quantified as percent of total input
[4] = target: GST-RILP-L2 (RILP-Like 2, mouse) (mouse) (UniProt Q99LE1); assay: as above

Sequence of UniProt Q9JJC6 (Q9JJC6 whole entry, the tested form may be a part): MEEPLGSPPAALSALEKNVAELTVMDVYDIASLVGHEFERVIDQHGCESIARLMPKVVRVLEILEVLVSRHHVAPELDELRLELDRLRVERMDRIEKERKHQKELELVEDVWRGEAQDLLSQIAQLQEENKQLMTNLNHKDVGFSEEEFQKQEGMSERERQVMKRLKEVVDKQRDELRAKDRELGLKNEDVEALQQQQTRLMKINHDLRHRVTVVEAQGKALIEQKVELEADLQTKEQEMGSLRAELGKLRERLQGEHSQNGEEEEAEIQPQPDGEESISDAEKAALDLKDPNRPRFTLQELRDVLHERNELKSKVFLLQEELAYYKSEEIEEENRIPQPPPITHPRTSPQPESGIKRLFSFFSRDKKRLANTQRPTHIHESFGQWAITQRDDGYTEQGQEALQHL

Substance | percent reduction of pull-down after GSK2578215A, against untreated cells [1] [%] | percent reduction of pull-down after GSK2578215A, against untreated cells [2] [%] | percent of total input pulled down [3] [%] | percent reduction of pull-down after LY333531, against Ion/TPA alone [3] [%] | percent of total input pulled down [4] [%] | percent reduction of pull-down after LY333531, against Ion/TPA alone [4] [%]
Rab12 (endogenous, RAW264.7 macrophages) (from UniProt P35283 1-291) (natural protein) | 50 | 80 | – | – | – | –
Rab12 (endogenous, RBL-2H3 cells) (from UniProt P35284 1-291) (natural protein) | – | – | 14 | 60 | 4 | 90
phosphoRab12 (endogenous, Ion/TPA-activated RBL-2H3 cells) (from UniProt P35284 1-291) (natural protein) | – | – | 38 | – | 18 | –
